Tests used:
[1] = biological target: T1, Fc tagged human SIRPγ (ACRO # SIG-H5253) (human, UniProt Q9P1W8 29-360); assay: ELISA, plate-coated Fc tagged human SIRPγ
T1 construct: Bought protein; it includes the transmembrane and cytoplasmic part, which a soluble Fc fusion would not carry; also called Fc tagged human SIRP gamma; recombinant human SIRP gamma; not shown: Fc tag
Procedure: Fc tagged human SIRPγ (ACRO # SIG-H5253) is adsorbed to high-binding microtiter plates at a concentration of 1 μg/ml in phosphate buffered saline (PBS) overnight at 4° C. The coating solution is removed, the wells are washed and then blocked with 75% casein in PBS containing 0.5% Tween 20 (PBST) for 60 minutes at room temperature while shaking. Blocking solution is removed, the wells are washed and incubated for 60 minutes at room temperature while shaking with anti-SIRP mAbs diluted in PBST at a starting concentration of 30 μg/ml and reducing the concentration in 3-fold serial dilutions. Wells are washed three times with PBST and incubated for 60 minutes at room temperature while shaking with an HRP labeled donkey anti-mouse or anti-human secondary antibody (Jackson ImmonResearch Laboratories) diluted 1:10,000 in PBST. The wells are washed and then incubated with peroxidase substrate and the absorbance at 450 nm determined. The apparent affinities were calculated using a non-linear fit model (GraphPad Prism).

[2] = biological target: T2, human SIRPγ expressed on cells (human, UniProt Q9P1W8 29-387); assay: flow cytometry on Jurkat cells expressing SIRPγ, increasing mAb concentrations (FIG. 4A)
T2 construct: Endogenous SIRPγ on Jurkat T-ALL cells and on human CD3+ T cells; also called SIRPγ expressing Jurkat cells; Human T Cells Expressing SIRPγ
T2 sequence (Q9P1W8 29-387): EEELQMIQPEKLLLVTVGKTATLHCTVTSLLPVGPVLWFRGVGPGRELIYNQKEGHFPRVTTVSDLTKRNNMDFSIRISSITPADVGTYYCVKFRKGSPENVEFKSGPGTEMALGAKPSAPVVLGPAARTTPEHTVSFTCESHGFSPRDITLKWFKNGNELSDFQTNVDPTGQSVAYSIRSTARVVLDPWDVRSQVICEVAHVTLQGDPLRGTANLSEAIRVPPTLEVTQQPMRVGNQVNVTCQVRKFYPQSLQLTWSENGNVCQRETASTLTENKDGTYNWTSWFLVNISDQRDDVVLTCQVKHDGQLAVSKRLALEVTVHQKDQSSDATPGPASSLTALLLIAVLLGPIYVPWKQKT
Procedure: FIG. 4A-FIG. 4B. Binding of SIRP mAbs to Jurkat T cells Expressing SIRPγ. Binding of SIRP1, SIRP2, SIRP3, SIRP4 and SIRP9 to Jurkat T-ALL cells was determined. Cells were incubated with increasing concentrations of antibody FIG. 4A; or 10 μg/ml of the anti-SIRP antibodies for 1 hr; FIG. 4B. Cells were washed and then incubated with Alexaflour 647-labelled secondary antibody for 1 hr. Cells were washed and antibody binding measured using flow cytometry.
Jurkat cells were incubated for 60 min at 37° C., 5% CO₂ with increasing concentrations of the anti-SIRP mAbs diluted in phosphate buffered saline (PBS), pH 7.2. Cells were then washed with PBS and incubated for an additional hour with Alexa Fluor-647 labeled donkey anti-mouse antibody (Jackson ImmunoResearch Laboratories) in PBS. Cells were washed and binding analyzed using a C6 Accuri Flow Cytometer (Becton Dickinson). Alternatively, the cells were incubated for 1 h at 37° C. with the saturating concentration of 10 μg/ml of SIRP mAbs in binding buffer containing 1 mM EDTA (Sigma Aldrich), 1% FBS (Biowest) in PBS (Corning). The cells were then washed and stained for 45 min under the same conditions with donkey anti-mouse IgG fluorescein isothiocyanate (FITC)-linked secondary antibody (Jackson ImmunoResearch Laboratories). The cells were then washed and analyzed by flow cytometry (Attune, Life Technologies).

T1 sequence (Q9P1W8 29-360 limits assumed): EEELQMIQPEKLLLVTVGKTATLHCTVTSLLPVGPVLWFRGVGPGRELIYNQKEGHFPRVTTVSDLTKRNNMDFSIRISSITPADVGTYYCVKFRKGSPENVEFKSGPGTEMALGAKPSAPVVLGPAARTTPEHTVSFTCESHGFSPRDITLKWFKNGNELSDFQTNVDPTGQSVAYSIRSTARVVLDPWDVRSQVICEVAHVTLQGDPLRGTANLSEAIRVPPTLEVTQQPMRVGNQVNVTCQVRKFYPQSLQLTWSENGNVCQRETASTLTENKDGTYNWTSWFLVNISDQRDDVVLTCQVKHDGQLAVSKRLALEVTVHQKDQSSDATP

B1: SIRP1 (antibody, mouse IgG1, kappa, V domains shown)
VH: QVQLQQSGAELMKPGASVKISCKATGYSFTKYWIEWVKQRPGHGLEWIGEILPGSVITNYNEKFKGKATFTADTSSNTVYMQLSSLTSEDSAVYYCTKWGLYDSDDGVDYWGQGTTLTVSS
VL: ENVLTQSPAIMSASLGEKVTMSCRASSGVNYMYWYQQKSDASPKLLIYYTSILAPGVPARFSGSGSGNSYSLTISSMEGEDAATYYCQQFTSSPYTFGGGTKLEIKR
notes: Hybridoma-derived mouse mAb
binding result [1]: no binding (tested: 30 µg/ml) | binding result [2]: no binding

Source: patent publication US20200297842A1 (published 2020)
